The Human Domainome abundance scans (Beltran et al. 2025)
± gives the uncertainty stated by the source.

B1: POU domain, class 4, transcription factor 1, residues 266 to 347; numbered along this chain, Q01851 (parent)
chain: RELEAFAERFKQRRIKLGVTQADVGSALANLKIPGVGSLSQSTICRFESLTLSHNNMIALKPILQAWLEEAEGAQREKMNKP

Variants of: B1
Assay: abundance fitness (aPCA) (normalised: wild type 0, dead -1); higher = more abundant; growth selection in yeast, the domain comes from the species named
Conditions: Homo sapiens

Point of comparison: P62M, abundance fitness -0.687 ± 0.1. Against it:
- L31A — higher, -0.059 ± 0.029
- L31V — higher, -0.006 ± 0.025
- L31G — higher, -0.223 ± 0.024
- L31R — higher, -0.005 ± 0.024
- A5L — higher, 0.037 ± 0.044
- A5T — higher, -0.065 ± 0.059
- A5S — higher, -0.005 ± 0.073
- A5P — higher, -0.451 ± 0.1
- A5Y — higher, -0.171 ± 0.11
- A7H — within error, -0.668 ± 0.078
- A7L — within error, -0.656 ± 0.037
- M57D — within error, -0.935 ± 0.31
- M57P — within error, -0.606 ± 0.11
- M57F — higher, -0.309 ± 0.16
- N80Q — higher, 0.091 ± 0.061
- N80E — higher, 0.078 ± 0.053
- N80Y — higher, -0.037 ± 0.11
- R14G — lower, -1.07 ± 0.081
- R14L — within error, -0.768 ± 0.045
- R14N — lower, -0.923 ± 0.12
- R14S — lower, -0.906 ± 0.059
- R14I — within error, -0.866 ± 0.082
- T20C — higher, 0.008 ± 0.36
- T20I — within error, -0.725 ± 0.21
- T20N — within error, -0.261 ± 0.44
- T20S — higher, -0.117 ± 0.19
- R13M — higher, -0.023 ± 0.057
- R13T — higher, 0.008 ± 0.042
- R13D — higher, -0.253 ± 0.061
- R13I — higher, -0.09 ± 0.064
- R13H — higher, -0.103 ± 0.062
- P62S — higher, -0.243 ± 0.069
- P62K — higher, -0.243 ± 0.077
- P62C — higher, -0.429 ± 0.082
- P62V — higher, -0.485 ± 0.057
- P62G — higher, -0.2 ± 0.039
- P34A — higher, 0 ± 0.029
- P34K — higher, -0.065 ± 0.043
- P34T — higher, -0.011 ± 0.039
- K61G — higher, -0.305 ± 0.037
- K61A — higher, -0.074 ± 0.043
- K61D — within error, -0.635 ± 0.15
- K61N — higher, -0.388 ± 0.08
- K61P — lower, -1.19 ± 0.36
- E2G — higher, -0.102 ± 0.023
- E2R — higher, -0.266 ± 0.026
- E2A — higher, -0.267 ± 0.028
- I63S — higher, -0.204 ± 0.068
- I63F — higher, 0.027 ± 0.15
- I63D — higher, -0.41 ± 0.1
- I63V — higher, 0.002 ± 0.046
- Q75V — higher, -0.025 ± 0.041
- Q75A — higher, 0 ± 0.04
- Q75H — higher, 0.041 ± 0.097
- Q75W — higher, -0.077 ± 0.045
- P82M — higher, 0.008 ± 0.21
- P82T — higher, -0.001 ± 0.082
- P82D — higher, 0.019 ± 0.14
- P82Y — higher, 0.095 ± 0.34
- N56V — higher, 0.066 ± 0.04
- N56T — higher, -0.029 ± 0.081
- N56P — higher, -0.301 ± 0.094
- N56A — higher, 0.055 ± 0.046
- A27Y — higher, -0.041 ± 0.19
- A27V — higher, -0.16 ± 0.04
- A27W — higher, -0.088 ± 0.04
- A27T — higher, -0.069 ± 0.07
- A27C — higher, 0.01 ± 0.076
- A27H — higher, -0.07 ± 0.12
- A27R — higher, -0.081 ± 0.036
- A27M — higher, -0.175 ± 0.11
- A27N — higher, -0.071 ± 0.12
- A27K — higher, -0.058 ± 0.062
- L28A — higher, -0.422 ± 0.032
- L28H — higher, -0.332 ± 0.061
- L3R — within error, -0.622 ± 0.046
- L3N — higher, -0.287 ± 0.12
- L3K — within error, -0.564 ± 0.094
- L3G — higher, -0.523 ± 0.04
- L3F — higher, -0.103 ± 0.065
- L3S — higher, -0.374 ± 0.052
- A22D — higher, -0.121 ± 0.15
